Results on five molecules are retold here after article PMC5347347, “A Localized Complex of Two Protein Oligomers Controls the Orientation of Cell Polarity” (mBio, 2017).

The target of data set [1] is SpmX-L (SpmX lysozyme-like domain alone, residues 1 to 155) (Caulobacter crescentus). Description: MST; Atto-488-labelled SpmX* or SpmX-L* held constant at 25 nM; PopZ (max 10 μM), DivJ (max 40 μM) or unlabelled SpmX titrated in 2-fold serial dilutions; incubated 10 min at room temperature; fitted by the law of mass action.
Data set [2] has as its target SpmX (purified WT SpmX without its transmembrane region, residues 1 to 355) (Caulobacter crescentus). The data set is described as above.
Data set [3] has as its target SpmX E19R (purified) (Caulobacter crescentus). Description: SEC; analytical size exclusion, Superdex 200 Increase 10/300 GL; apparent masses from a Bio-Rad gel filtration standard; purified SpmX variants alone. Background: Size exclusion chromatography separates by hydrodynamic size, large species first.
Data set [4] addresses PopZ (purified, His-tagged) (Caulobacter crescentus). Briefly: SPR; PopZ immobilised on the sensor chip; 2-fold serial dilutions of WT SpmX or SpmX-L injected, with washes between injections. A general note: In SPR one partner is held on a chip, and binding of the other changes the refractive index at the surface.
For data set [5], the target named is T1, DivJ histidine kinase (purified without its TM regions, His-tagged) (Caulobacter crescentus, UniProt Q03228 189-597).
T1 construct: DivJ histidine kinase, Caulobacter crescentus, purified without its TM regions (the cytoplasmic portion); Construct limits are expected in Text S1; also called cytoplasmic portion of DivJ; source: purified, His-tagged
T1 sequence (looked up): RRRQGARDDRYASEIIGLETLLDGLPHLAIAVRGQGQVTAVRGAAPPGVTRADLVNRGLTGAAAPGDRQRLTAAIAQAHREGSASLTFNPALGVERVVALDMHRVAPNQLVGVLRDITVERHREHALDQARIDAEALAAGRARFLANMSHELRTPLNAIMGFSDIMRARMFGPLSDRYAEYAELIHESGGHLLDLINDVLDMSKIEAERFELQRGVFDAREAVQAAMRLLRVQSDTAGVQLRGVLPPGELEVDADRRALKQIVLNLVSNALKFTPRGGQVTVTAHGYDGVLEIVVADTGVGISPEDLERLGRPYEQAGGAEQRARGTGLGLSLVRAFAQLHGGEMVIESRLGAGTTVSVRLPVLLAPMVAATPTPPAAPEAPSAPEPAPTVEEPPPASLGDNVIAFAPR
Description: MST; Atto-488-labelled SpmX* or SpmX-L* held constant at 25 nM; PopZ (max 10 μM), DivJ (max 40 μM) or unlabelled SpmX titrated in 2-fold serial dilutions; incubated 10 min at room temperature; fitted by the law of mass action. To be noted: both partners purified.

Data set [6] concerns the molecule itself. Described as above.

Sequence of PopZ (purified, His-tagged) (Caulobacter crescentus) (A0A0H3C7Y4 entry or part of it): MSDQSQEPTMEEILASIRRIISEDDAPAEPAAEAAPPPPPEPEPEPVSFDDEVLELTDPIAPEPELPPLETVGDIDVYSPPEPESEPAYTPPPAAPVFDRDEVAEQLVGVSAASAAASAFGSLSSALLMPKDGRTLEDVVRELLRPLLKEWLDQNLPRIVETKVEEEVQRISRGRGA

A word on the Kd: it is a measure of binding affinity in units of concentration. Lower therefore signals higher affinity. In data set [1], “DivJ histidine kinase (purified without its TM regions, His-tagged) (from UniProt Q03228 189-597) (domain or fragment)” registered an equilibrium dissociation constant (Kd) of 6300 nM.

As for “PopZ (purified, His-tagged) (natural protein)”, the figures for the Kd in data set [1] and in data set [2] were 120 nM and 600 nM, respectively.

A word on the stoichiometry N: it is a count of units in the complex or per binding partner. Take “SpmX E19R (purified) (domain or fragment)”: the stoichiometry N in data set [3] worked out at 4.

For “SpmX-L (SpmX lysozyme-like domain alone, residues 1 to 155) (domain or fragment)”, the overall SPR response relative to WT SpmX at comparable concentrations in data set [4] is 2 fold.

B1: SpmX (purified WT SpmX without its transmembrane region, residues 1 to 355) (domain or fragment, Caulobacter crescentus, UniProt A0A0H3C9Y4 1-355, looked up)
chain: MKPRHQVSRAAVDLIKRFEGYRQKAAQLPDGRWTVGYGHTLTAREGASVSEKDAEALLLYDLISVAHSVNEHTYTPLNQNQFDALVCFAFNIGLDNFLRSGVLRRINEGSLLQAACAMEMWRKADFEGERIVIDALVRRRSAEKTLFLTPANGEWVPAPSPVLRPKVDYDASCAVPKQTPATVNTRTEGDRVIAQREEGLPLNVVVPEEDAPTATEQSAAAVAARLEAILPETPSAPASMAKPAMRQDDLGLPEPPAPTQPAAMEPAPVLFEAEPQPAPVEPPPAAPVEFTPFRLTPQASEQAEAPVEAPAPTRPAPSEPTLFGAPATGSSVFNLDGFSTSEDATVGVMDVPLVE
modifications: Atto-488 on lysine residues, approximately one dye molecule per protein (only the labelled copy SpmX* held constant in MST; unlabelled as titrant and in SPR, SEC and native gel)
notes: purified without the TM region, residues 1 to 355; predicted monomeric mass 40.1 kDa; Forms higher-order oligomers (void volume in SEC, ladder in native gel); Construct details are in Text S1; also called SpmX-ΔTM; source: purified, His-tagged
Consider B1, for which the figures for the Kd in data set [1], in data set [5] and in data set [6] were 630 nM, 510 ± 90 nM and 360 ± 50 nM, respectively.
